Tested on: Escherichia coli TOP10
Assay: shrunken log2 fold change of peptide-encoding DNA abundance (4.5 h post-induction vs induction); higher = less antimicrobial activity (less host growth inhibition)
Conditions: time post-induction: 4.5 h; library: site-saturation at positions 5, 18, 19, 20
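Also: peptides expressed intracellularly from a pBAD plasmid library in pooled LB shake-flask culture, induced with 0.3% L-arabinose, DNA abundance read by NGS, three biological replicates, DESeq2 with apeglm shrinkage.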

Row | Sequence | shrunken log2 fold change
1 | RRIRTRPPRLPRPRPRPSYLPRP | -0.416
2 | RRIRYRPPRLPRPRPRPTDSPRP | -0.678
3 | RRIRGRPPRLPRPRPRPEYKPRP | 0.375
4 | RRIRMRPPRLPRPRPRPCVYPRP | -0.195
5 | RRIRWRPPRLPRPRPRPPNKPRP | 0.206
6 | RRIRMRPPRLPRPRPRPNSWPRP | 0.122
7 | RRIRNRPPRLPRPRPRPWHRPRP | 0.049
8 | RRIRQRPPRLPRPRPRPDQRPRP | -0.00141
9 | RRIRQRPPRLPRPRPRPFHCPRP | -0.192
10 | RRIRLRPPRLPRPRPRPDIGPRP | -0.189
11 | RRIRCRPPRLPRPRPRPGKFPRP | -0.188
12 | RRIRVRPPRLPRPRPRPIEAPRP | -0.00729
13 | RRIRGRPPRLPRPRPRPHKMPRP | 0.0936
14 | RRIRERPPRLPRPRPRPPMSPRP | -0.373
15 | RRIRDRPPRLPRPRPRPGNHPRP | 0.0062
16 | RRIRNRPPRLPRPRPRPFCIPRP | -0.186
17 | RRIRHRPPRLPRPRPRPYPPPRP | -0.694
18 | RRIRIRPPRLPRPRPRPWWSPRP | -0.0718
19 | RRIRCRPPRLPRPRPRPKILPRP | -0.0835
20 | RRIRERPPRLPRPRPRPGHHPRP | -0.261
21 | RRIRIRPPRLPRPRPRPQDLPRP | -0.527
22 | RRIRNRPPRLPRPRPRPEFPPRP | 0.0125
23 | RRIRMRPPRLPRPRPRPMNKPRP | -0.0775
24 | RRIRARPPRLPRPRPRPGRFPRP | 1.11
25 | RRIRVRPPRLPRPRPRPVGWPRP | 0.77

Row | Sequence | shrunken log2 fold change
26 | RRIRERPPRLPRPRPRPMNIPRP | -0.847
27 | RRIRMRPPRLPRPRPRPHCWPRP | -0.207
28 | RRIRGRPPRLPRPRPRPGTNPRP | 0.133
29 | RRIRHRPPRLPRPRPRPEDHPRP | 0.0753
30 | RRIRSRPPRLPRPRPRPNMIPRP | -0.429
31 | RRIRMRPPRLPRPRPRPYGDPRP | 0.0122
32 | RRIRTRPPRLPRPRPRPFVIPRP | -0.488
33 | RRIRWRPPRLPRPRPRPDNVPRP | -0.26
34 | RRIRLRPPRLPRPRPRPQSVPRP | -0.325
35 | RRIRDRPPRLPRPRPRPFCHPRP | -0.00713
36 | RRIRWRPPRLPRPRPRPFHGPRP | -0.229
37 | RRIRRRPPRLPRPRPRPRNMPRP | 0.112
38 | RRIRMRPPRLPRPRPRPLLKPRP | 2.7
39 | RRIRWRPPRLPRPRPRPKMVPRP | 0.295
40 | RRIRMRPPRLPRPRPRPLEQPRP | 0.446
41 | RRIRMRPPRLPRPRPRPEGTPRP | 0.0716
42 | RRIRQRPPRLPRPRPRPQYYPRP | -0.243
43 | RRIRWRPPRLPRPRPRPQGSPRP | -0.00843
44 | RRIRPRPPRLPRPRPRPDCNPRP | -0.319
45 | RRIRARPPRLPRPRPRPFYAPRP | -0.066
46 | RRIRSRPPRLPRPRPRPQTAPRP | 0.0464
47 | RRIRKRPPRLPRPRPRPFGHPRP | -0.00208
48 | RRIRVRPPRLPRPRPRPKTCPRP | 0.021
49 | RRIRCRPPRLPRPRPRPVDYPRP | -0.258
50 | RRIRVRPPRLPRPRPRPIQPPRP | 0.0215

Row | Sequence | shrunken log2 fold change
51 | RRIRVRPPRLPRPRPRPLDPPRP | -0.258
52 | RRIRTRPPRLPRPRPRPTIIPRP | -0.786
53 | RRIRHRPPRLPRPRPRPAIDPRP | 0.178
54 | RRIRVRPPRLPRPRPRPYFFPRP | -0.512
55 | RRIRVRPPRLPRPRPRPKRLPRP | 0.132
56 | RRIRRRPPRLPRPRPRPATVPRP | -0.037
57 | RRIRSRPPRLPRPRPRPAQEPRP | 0.0123
58 | RRIRHRPPRLPRPRPRPAHPPRP | 0.175
59 | RRIRPRPPRLPRPRPRPRHWPRP | 0.423
60 | RRIRWRPPRLPRPRPRPANKPRP | -0.348
61 | RRIRCRPPRLPRPRPRPECKPRP | -0.255
62 | RRIRNRPPRLPRPRPRPTIPPRP | -0.605
63 | RRIRQRPPRLPRPRPRPTMWPRP | 0.16
64 | RRIRIRPPRLPRPRPRPFLPPRP | -0.4
65 | RRIRRRPPRLPRPRPRPHFYPRP | 0.0714
66 | RRIRHRPPRLPRPRPRPDWTPRP | -0.0689
67 | RRIRWRPPRLPRPRPRPHSTPRP | -0.209
68 | RRIRGRPPRLPRPRPRPMAAPRP | 1.4
69 | RRIRTRPPRLPRPRPRPNEYPRP | -0.22
70 | RRIRNRPPRLPRPRPRPKRSPRP | 0.115
71 | RRIRWRPPRLPRPRPRPYLHPRP | -0.639
72 | RRIRHRPPRLPRPRPRPILCPRP | -0.182
73 | RRIRDRPPRLPRPRPRPMPTPRP | -0.0113
74 | RRIRSRPPRLPRPRPRPVHYPRP | -0.707
75 | RRIRIRPPRLPRPRPRPKCFPRP | -0.852

Row | Sequence | shrunken log2 fold change
76 | RRIRMRPPRLPRPRPRPMWTPRP | 0.038
77 | RRIRYRPPRLPRPRPRPYHKPRP | -0.249
78 | RRIRQRPPRLPRPRPRPTDYPRP | -0.116
79 | RRIRGRPPRLPRPRPRPLMPPRP | 0.285
80 | RRIRTRPPRLPRPRPRPMCVPRP | 0.103
81 | RRIRCRPPRLPRPRPRPLELPRP | 0.172
82 | RRIRVRPPRLPRPRPRPYYAPRP | -0.915
83 | RRIRMRPPRLPRPRPRPMSYPRP | -0.175
84 | RRIRCRPPRLPRPRPRPWSCPRP | -0.739
85 | RRIRSRPPRLPRPRPRPDAQPRP | 0.406
86 | RRIRERPPRLPRPRPRPPGRPRP | 0.146
87 | RRIRFRPPRLPRPRPRPEKRPRP | -0.0774
88 | RRIRHRPPRLPRPRPRPFSGPRP | 0.136
89 | RRIRGRPPRLPRPRPRPCNEPRP | 0.0278
90 | RRIRARPPRLPRPRPRPTCPPRP | 0.444
91 | RRIRGRPPRLPRPRPRPWPHPRP | 0.074
92 | RRIRFRPPRLPRPRPRPEMCPRP | -0.0817
93 | RRIRIRPPRLPRPRPRPWMDPRP | 0.0312
94 | RRIRWRPPRLPRPRPRPDVFPRP | 0.019
95 | RRIRCRPPRLPRPRPRPQQRPRP | 0.0521
96 | RRIRGRPPRLPRPRPRPETIPRP | 0.224
97 | RRIRERPPRLPRPRPRPKPRPRP | 0.467
98 | RRIRQRPPRLPRPRPRPSDNPRP | -0.394
99 | RRIRGRPPRLPRPRPRPQYYPRP | -0.399
100 | RRIRQRPPRLPRPRPRPTNYPRP | -0.248

Row | Sequence | shrunken log2 fold change
101 | RRIRERPPRLPRPRPRPEVEPRP | -0.0864
102 | RRIRIRPPRLPRPRPRPRYDPRP | -0.285
103 | RRIRWRPPRLPRPRPRPWLFPRP | 0.0264
104 | RRIRIRPPRLPRPRPRPWIMPRP | -0.735
105 | RRIRERPPRLPRPRPRPKTFPRP | 0.0567
106 | RRIRYRPPRLPRPRPRPEVVPRP | -0.219
107 | RRIRVRPPRLPRPRPRPVLMPRP | 0.107
108 | RRIRYRPPRLPRPRPRPFNYPRP | 0.0209
109 | RRIRPRPPRLPRPRPRPTNSPRP | -0.195
110 | RRIRKRPPRLPRPRPRPQVPPRP | 0.325
111 | RRIRPRPPRLPRPRPRPNQMPRP | -0.129
112 | RRIRRRPPRLPRPRPRPTWTPRP | 0.464
113 | RRIRDRPPRLPRPRPRPQELPRP | -0.238
114 | RRIRVRPPRLPRPRPRPYIVPRP | -0.00649
115 | RRIRRRPPRLPRPRPRPERFPRP | 0.293
116 | RRIRGRPPRLPRPRPRPPALPRP | 0.881
117 | RRIRYRPPRLPRPRPRPAHVPRP | -0.144
118 | RRIRGRPPRLPRPRPRPRKNPRP | 0.74
119 | RRIRTRPPRLPRPRPRPKLDPRP | 0.2
120 | RRIRPRPPRLPRPRPRPCSHPRP | -0.0663
121 | RRIRNRPPRLPRPRPRPIMYPRP | -0.309
122 | RRIRVRPPRLPRPRPRPWNRPRP | -0.183
123 | RRIRMRPPRLPRPRPRPYWCPRP | -0.0737
124 | RRIRWRPPRLPRPRPRPNVQPRP | -0.0399
125 | RRIRDRPPRLPRPRPRPMIPPRP | -0.184

— the supplement of paper PMC9112550, “Optimization of the antimicrobial peptide Bac7 by deep mutational scanning” (BMC Biology, 2022)
